In the supplement of paper PMC10567573:
± gives the standard deviation.

Assay: protein stability index of a GFP-peptide fusion (GPS, HEK-293T) (PSI 1-6); higher = more stable
[1] = treatment: DMSO, c terminus: a fixed tail appended
[2] = treatment: MLN4924 1 uM, 8 h, c terminus: a fixed tail appended
[3] = treatment: DMSO, c terminus: native
[4] = treatment: MLN4924 1 uM, 8 h, c terminus: native
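Also: 24-mer peptide tiles fused after GFP, lentivirally expressed, FACS-sorted into six equal bins by GFP/DsRed ratio, decoded by Illumina sequencing, PSI is the read-weighted mean bin number.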

Sequence | protein stability index [1] | protein stability index [2] | protein stability index [3] | protein stability index [4]
LALLLCAGQVTALPVNSPMNKGDT [CHGA] | 2.68 ± 0.83 | 2.59 ± 0.5 |  | 
LASYLEKVRALEEANADLEVKIRD [KRT13] | 3.52 ± 0.22 | 3.56 ± 0.26 |  | 
LCCAFSTDGSVLAAGTHDGSVYFW [WSB1] | 2.78 ± 0.78 | 2.45 ± 0.78 |  | 
LCEKAKEILTKESNVQEVRCPVTV [PPP2CA] | 4.11 ± 0.32 | 4.44 ± 0.19 |  | 
LCPCLRSGIGSSQALGPSPPLFG [MYCL] |  |  | 2.54 ± 0.84 | 2.11 ± 0.26
LDDEDDTSIGMPSLMYRSPPGAEE [RETREG3] | 5.44 ± 0.23 | 5.39 ± 0.26 |  | 
LDKSTTGVSEILLKTQMKMSLKCL [FEM1B] | 2.6 ± 0.31 | 2.17 ± 0.26 |  | 
LEDELDKSVQGTGLAFIAFTEAMT [SLC6A17] | 2.73 ± 0.35 | 2.82 ± 0.51 |  | 
LEEFQLALKHYVESASSQSGCLRI [NECAB1] | 2.21 ± 0.36 | 2.16 ± 0.17 |  | 
LEETEPPLEPEDALSDAEFEGEGD [P3H4] | 5.49 ± 0.33 | 5.55 ± 0.17 |  | 
LEKDFSIYGGELGPMMKLKRHFVA [ACSBG2] | 2.23 ± 0.2 | 2.26 ± 0.53 |  | 
LEKGADVNRKSVKGNTALHDCAES [FEM1C] | 5.18 ± 0.29 | 5.38 ± 0.28 |  | 
LELLVNNGADVNIQSKDGKSPLHM [ANKRD44] | 4.06 ± 0.23 | 4.01 ± 0.3 |  | 
LFAGPHSTLTPPCSPPEDGLCPH [SNX8] |  |  | 3.79 ± 0.52 | 3.85 ± 0.22
LFAPLKLQMEFKAVQQVQRLPFLS [POMP] | 2.51 ± 0.82 | 2.46 ± 0.75 |  | 
LFQIDVYDFMNSAFSPIVILTERV [MIA2] | 2.75 ± 0.73 | 3.06 ± 0.91 |  | 
LGAVAVFAVGYIKISWSTWGEMTL [SLC19A2] | 2.97 ± 0.68 | 2.97 ± 0.73 |  | 
LGCYAVYSLLYLEHKGWYSWVLSM [CLPTM1] | 3.04 ± 0.42 | 3.27 ± 0.65 |  | 
LGGAAFLGTAIFIEADRRRAQLHV [SPNS1] | 2.35 ± 0.74 | 2.32 ± 0.53 |  | 
LGKTEQGFENMDFFTLDLEHIADA [TRIM63] | 3.85 ± 0.21 | 3.8 ± 0.12 |  | 
LGQDRQVPLWGQLLLFLVFVIVLF [EMD] | 2.83 ± 0.58 | 2.79 ± 0.76 |  | 
LGQEFDEVTADDRKVKSTITLDGG [FABP4] | 5.16 ± 0.21 | 5.32 ± 0.33 |  | 
LGTPTSSTPRPSITPTKKIELDRT [C2CD2L] | 4.94 ± 0.18 | 4.88 ± 0.24 |  | 

Sequence | protein stability index [1] | protein stability index [2] | protein stability index [3] | protein stability index [4]
LHKFPYRMVPALPPKRMLGADREF [SNX8] | 2.55 ± 0.15 | 2.67 ± 0.32 |  | 
LHSLDDFYIGKYFGGVLEYFMIQA [RHOBTB3] | 2.78 ± 0.37 | 2.8 ± 0.63 |  | 
LHSQEDDDSSSESGSGNGSSTLNP [NOL4L] | 5.39 ± 0.2 | 5.48 ± 0.17 |  | 
LIGLISDRLRRNWPPSFLSEFRAL [SPNS1] | 2.19 ± 0.35 | 2.1 ± 0.2 |  | 
LITIATFQIAANLSMERYALVFGV [SLC19A2] | 3.02 ± 0.15 | 3.12 ± 0.59 |  | 
LKEMYDADLLEEEVIISWSEKASK [EIF5] | 3.33 ± 0.45 | 3.88 ± 0.44 |  | 
LKERCAQDACQAQAREKELLELQS [CCDC89] | 4.1 ± 0.26 | 4 ± 0.51 |  | 
LKKPIKGKQAPRKKAQGKTQQNRK [KMT5A] | 4.29 ± 0.2 | 4.45 ± 0.23 |  | 
LKLKNKLLQADREHLPVKPDTMEK [DENND6A] | 4.35 ± 0.34 | 4.33 ± 0.22 |  | 
LKLLNVLEEYITDEQKEEEEEEGE [FAM9B] | 4.94 ± 0.18 | 4.93 ± 0.29 |  | 
LKLMDRHKKDCAREKPFKCQECGK [ZNF75A] | 3.74 ± 0.37 | 3.95 ± 0.28 |  | 
LKLQTKTIKVSYARPSSASIRDAN [ELAVL3] | 2.77 ± 0.37 | 2.91 ± 0.32 |  | 
LKTSKMALSPSATAKRINRTSLSS [CDC14A] | 3.71 ± 0.26 | 3.54 ± 0.25 |  | 
LLDIKTRLEQEIATYRSLLEGQDA [KRT13] | 3.45 ± 0.19 | 3.51 ± 0.26 |  | 
LLEDMRASEAFHWDERGRAAAYSP [ANKRD9] | 2.7 ± 0.44 | 3.18 ± 0.54 |  | 
LLGEETPMAADEGSAEKQAGEAHM [EHMT1] | 5.66 ± 0.31 | 5.57 ± 0.38 |  | 
LLKAGADVNKTDHSQRTALHLAAQ [INVS] | 4.11 ± 0.33 | 4.09 ± 0.17 |  | 
LLKITIPNAFIGSDVVDWLYHNVE [DVL3] | 2.31 ± 0.63 | 2.26 ± 0.28 |  | 
LLKTLYNSIKNEKLEWAIDEDELR [PSD2] | 2.61 ± 0.43 | 2.07 ± 0.32 |  | 
LLRTARVRRECWFLPTALLCAYGF [SLC19A2] | 2.54 ± 0.8 | 2.54 ± 0.43 |  | 
LLYAQGLLAIQFLEFFYGIATATE [SLC19A2] | 3.53 ± 0.64 | 3.2 ± 0.037 |  | 
LMFLDICSELNKLCQHFEAVHSGT [SPACA9] | 2.67 ± 0.72 | 2.4 ± 0.29 |  | 
LNDRLASYLDKVRALEEANTELEV [KRT17] | 4.03 ± 0.11 | 4.17 ± 0.17 |  | 

Sequence | protein stability index [1] | protein stability index [2] | protein stability index [3] | protein stability index [4]
LNELERLSNLVGKPSENHPLHNSG [MED27] | 4.06 ± 0.25 | 4.31 ± 0.24 |  | 
LNPHIHLMGDESACIAYIRITQYL [CAMK2A] | 2.8 ± 0.44 | 2.71 ± 0.51 |  | 
LPACTLCAGPLEDAVTIPCGHTFC [TRIM15] | 3.818 ± 0.022 | 4.16 ± 0.35 |  | 
LPDELGSQLPQVLHVSLGQKLVAA [MOSPD3] | 3 ± 0.34 | 3.14 ± 0.089 |  | 
LPHQSHRQRSSLAKINIVYQELNY [SCNN1D] | 2.54 ± 0.23 | 2.54 ± 0.3 |  | 
LPKPPGTPVVTESTATSITLTWDS [PTPRD] | 3.88 ± 0.087 | 3.88 ± 0.18 |  | 
LPPDVTTQSVMGFDPLPPSDTIYS [TCF25] | 4.19 ± 0.16 | 4.37 ± 0.34 |  | 
LPRKDYESLDYDRCINDPYLEVLE [CLCN6] | 3.4 ± 0.24 | 3.58 ± 0.18 |  | 
LPSERWNPTQNVRTILLSVISLLN [CDC34] | 3.53 ± 0.2 | 3.58 ± 0.33 |  | 
LQKLSALLMTADILAETGIRKTVK [ELOA2] | 2.48 ± 0.64 | 2.34 ± 0.45 |  | 
LRNTLKSTSEDSLVKQECIKEVVE [FAN1] | 4.63 ± 0.3 | 5.01 ± 0.23 |  | 
LRQQQDEAYLASLRADQEKERKKR [FAF2] | 4.36 ± 0.57 | 4.53 ± 0.4 |  | 
LSASSPRMLHRSTQTTNDGVCQSM [ZMYND11] | 4 ± 0.24 | 4.34 ± 0.18 |  | 
LSDEDDGFVDLLDGENLKNEEETP [CDC25A] | 5.48 ± 0.33 | 5.4 ± 0.31 |  | 
LSEVKPPPPPPPAQTFLFQGQPVV [TRADD] | 3.89 ± 0.38 | 4.07 ± 0.2 |  | 
LSFLDYRDLINCCYVSRRLSQLSS [FBXO3] | 2.59 ± 0.18 | 2.14 ± 0.48 |  | 
LSLKRELSWYRGRRPRTAFTQNQI [HESX1] | 2.41 ± 0.27 | 2.66 ± 0.14 |  | 
LSPAGSSQEAADTPDTRHPCSLGS [YJU2B] | 5.24 ± 0.21 | 5.3 ± 0.23 |  | 
LSPDPEERPGAEGAPLLPPPLPPP [ACBD3] | 5.27 ± 0.15 | 5.32 ± 0.17 |  | 
LTEHKRIHTGKKPHVCSLCGKAFY [ZNF649] | 2.83 ± 0.38 | 3.32 ± 0.56 |  | 
LTKTFQGPAVVCGTPTSHVYMFKN [LYSMD4] | 2.45 ± 0.22 | 2.63 ± 0.15 |  | 
LTRVLAEMREQYEAMAEKNRRDVE [KRT15] | 3.47 ± 0.31 | 3.93 ± 0.28 |  | 
LTVRKSQSEPSEQDGVLDLSTKKS [LCOR] | 5.15 ± 0.25 | 5.22 ± 0.24 |  | 

Sequence | protein stability index [1] | protein stability index [2] | protein stability index [3] | protein stability index [4]
LVAFVLLNECVGTAYWALAGSIGG [SLC22A15] | 3.05 ± 0.34 | 2.86 ± 0.38 |  | 
LVDQSKKANSPLKGHERTVQYLQH [VPS39] | 4 ± 0.3 | 3.85 ± 0.32 |  | 
LVKKYGTKQWTLIAKHLKGRLGKQ [MYBL2] | 2.43 ± 0.89 | 2.45 ± 0.53 |  | 
LWPFAWLQVAGLSEEQLQEPITGW [LPCAT4] | 2.38 ± 0.18 | 2.5 ± 0.34 |  | 
LYKSLKTLSAELVPWLNLKKQDEN [CEP70] | 2.37 ± 0.49 | 2.03 ± 0.37 |  | 
LYLEEIADRIIEVDMECQTDAFLD [RSPH3] | 2.44 ± 0.74 | 2.59 ± 0.28 |  | 
LYLIAKRNRKLKCTFSLTHPANRS [SLC22A15] | 2.49 ± 0.41 | 2.41 ± 0.17 |  | 
LYPSLGAGYRLGPAQPGADSSFPP [TBX6] | 3.38 ± 0.039 | 3.39 ± 0.24 |  | 
MADADEGFGLAHTPLEPDAKDLPC [TBX5] | 5.24 ± 0.27 | 5.13 ± 0.22 |  | 
MAGSDTAPFLSQADDPDDGPVPGT [SPNS1] | 5.57 ± 0.17 | 5.34 ± 0.23 |  | 
MAPVMAHVDPEEPWSPCSARFITD [ADAMTS4] | 3.76 ± 0.4 | 3.85 ± 0.37 |  | 
MCVAQVLTAHLLPPRQALGSLCSP [YPEL3] | 2.8 ± 0.93 | 2.8 ± 0.35 |  | 
MDATNAFKKTAYELLDEKLLARGT [FEM1A] | 3.8 ± 0.23 | 3.85 ± 0.25 |  | 
MDEESELIQPQDQSCWAFLPDLCL [FBXO39] | 3.45 ± 0.17 | 3.34 ± 0.33 |  | 
MDERLSLLRSPPPPSARHRAHPPQ [KCNA3] | 4.55 ± 0.23 | 4.44 ± 0.19 |  | 
MDHPSREKDERQRTTKPMAQRSAH [CSNK1G1] | 5.34 ± 0.22 | 5.09 ± 0.57 |  | 
MDPQNQHGSGSSLVVIQQPSLDSR [SPRY1] | 4.69 ± 0.096 | 4.65 ± 0.13 |  | 
MEESKAKFENLCKLMKEILDKKVE [HSP90AB1] | 3.34 ± 0.28 | 3.29 ± 0.19 |  | 
MEKYEKLAKTGEGSYGVVFKCRNK [CDKL4] | 3.78 ± 0.19 | 3.67 ± 0.26 |  | 
MERPMSQADLELDYNPPRVQLSDE [CBY2] | 5.36 ± 0.22 | 5.22 ± 0.21 |  | 
